The record followed here is patent US20230374116A1 (ROSALIND FRANKLIN INSTITUTE, published 2023).

Test [1] addresses T1, SARS-CoV-2 receptor-binding domain (amino acids 330-532), prototypical Wuhan/Victoria (SARS-CoV-2 (Wuhan/Victoria), UniProt P0DTC2 330-532). As to the kind of experiment: SPR, RBD analyte, VHH_H6-Fc ligand. Background: Surface plasmon resonance follows binding to a sensor surface in real time, without labels.
The target of test [2] is T1, SARS-CoV-2 receptor-binding domain …. Description: SPR, VHH analyte over immobilised RBD.
Test [3] has the same target. Description: SPR, VHH analyte, biotinylated RBD ligand.
For test [4], the target named is Spike protein on live SARS-CoV-2 Victoria strain (SARS-CoV-2 (Victoria), UniProt P0DTC2 14-1273). Description: cell-based or functional assay.
Test [5] concerns the target T1, SARS-CoV-2 receptor-binding domain …. As to the kind of experiment: X-ray crystallography.

Usually Kd stands for the equilibrium constant for the complex coming apart. Read a high Kd as a looser complex.

B1: VHH_H6-Fc (Fc fusion)
chain: QVQLVESGGGLVQPGGSLTLSCVASESSLAPYRVAWFRQAPGKEREGVSCISRDAHPTSTYYTASVKGRFTMSRDNAKNTVYLQMNSLKPSDTAVYYCATDLGGYCSDSNYPRAWWGQGTQVTVSS
Regarding B1, the Kd in test [1] is 0.261 nM.

B2: C5 (VHH)
VHH: QVQLVESGGGSVQAGGSLTLSCVASGVTLGRHAIGWFRQAPGKERERVSCIRTFDGITSYVESTKGRFTISSNNAMNTVYLQMNSLKPEDTAVYFCALGVTAACSDNPYFWGQGTQVTVSS
notes: also called VHH C5
In test [2], B2 came in with an equilibrium dissociation constant (Kd) of 0.099 nM and a T1/2 of 12 min. Moreover, in test [3], the Kd turned out to be 0.099 nM and the T1/2 was found to be 12 min. The “IC50, neutralisation of SARS-CoV2, micro-titre neutralisation assay” value in test [4] was 32 nM.

B3: A8 (VHH)
VHH: QVQLVESGGGLVQAGGSLRLSCAASGGTFSTAAMGWFRQAPGEERECVASIGWRGVRTWYADSVKGRFTISRDNPQNTVYLQMNNLKSGDTAVYYCAASVGNYGLPWAHFEYDFWGQGIQVTVSS
notes: also called 2_A8
For B3, the binding result in test [5] is “binds”.
